According to the nanobody polyreactivity screen of Harvey et al. (2022):

test: yeast display, Sf9 membrane polyspecificity reagent, FACS + sequencing; frameworks hold sequencing errors
Outline: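 Using colony PCR, genes from sorted yeast display clones were amplified, then sequenced on MiSeq at 2 × 250 and filtered by CDR length. The clones had been stained with 10% biotinylated, detergent-solubilized Sf9 membrane reagent for 1 hour at 4 °C and sorted by FACS into low and high (top ~1%) gates on anti-HA and streptavidin fluorescence. Polyreactivity labels come from the gate of origin.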

Row | Sequence | polyreactivity (PSR sort gate)
1 | QVQLEESGGGLVQAGGSLRLSCAASGRTFYRYAMGWYRQAPGKERELVAAITWSGGSTYYADSVKGRFTTSRDNAKNTVYLQMNSLKPEDTAVYYCARRLYPYRPTAYDYWGQGTQVTVSS | low polyreactivity
2 | QVQLEESGGGLVQAGGSLRLSCAASGRTFYTNAMGWYRQAPGKERELVAAISGRGSTYYADSVKGRFTISRDNAKNTVYLQMNSLKPEDTAVYYCAALLPGRSSSDYWGQGTLVTVSS | high polyreactivity
3 | QVQLEESGGGLVQAGGSLRLSCAASGRTFYVYTMGWYRQAPRKERELFAGISYSGGSTYYADSVKGRFTISRDTAKKTVYLQKYSLKPEDTAVYYCNAELYFPYFDGKTRHGGYWGQGSQVTVSS | low polyreactivity
4 | QVQLEESGGGLVQAGGSLRLSCAASGRTLSHYAKGWYRKAPGKERELVAAITRSGGSTYYADSVKGRFTISRDNAKNTVYLQMNRLKPEDTAVYYWNKTLYTSYDFWGQGTQVTVSS | low polyreactivity
5 | QVQLEESGGGLVQAGGSLRLSCAASGSIFALYTIGWSRQAPRKERELVAAISSRGGSTYYADSVKGRFTISRDNAKNTVYLQMNSLKPEDTAVYYCNAVVRESAYNFDYWGQGTQVTVSS | high polyreactivity
6 | QVQLEESGGGLVQAGGSLRLSCAASGSIFAVYAMGWYRHAPGKERELVAAIRSGSRTYYADSVKGRFTISRDNAKNTVYLQMNSLKPEDTAVYYCATTYGTPRYDYWGQGTQVTVSS | high polyreactivity
7 | QVQLEESGGGLVQAGGSLRLSCAASGSIFGANAMAWYRQAPGKERDLVAAITTSGGSTFYADSVKGRFTISRDNAKNTVYLQMNCLKPEDNAVYYCAAEWVYSIKSVYIYEMYYWGQGTQVTVSS | low polyreactivity
8 | QVQLEESGGGLVQAGGSLRLSCAASGSIFGQYAMGWYRQAPGKERELVAAISTRGGSTRYADSVKGRFTISRDNAKNTVYLQMNSLTPEGTAVYYCAARVPYIRHLAVDYWGQGTQVTVSS | high polyreactivity
9 | QVQLEESGGGLVQAGGSLRLSCAASGSIFGTYAMGWYRQAPGKEREFVAAISWSDGSTYYADSVKGRFTISRDNAKNTVYLQMNSLKPEDTAVYYCAVRRVGSIYIDRYIYVVADYDYWGQGTQVTVSS | low polyreactivity
10 | QVQLEESGGGLVQAGGSLRLSCAASGSIFGYYAMGWYRQAPGKERELVAAITTGGSTSYADSVKGRFTISRDNAKNTVYLQMNSLKPEDTAVYYCNARFKRLFGRADDYWGQGTQVTVSS | low polyreactivity
11 | QVQLEESGGGLVQAGGSLRLSCAASGSIFIRNAMGWYRQAPGKERELVAAISTIGGRTYYADSVKGRFTISRDNAKNTVYLQMNSQKPEDTAVYYCAAEQGTPSTNWFDYWGQGTQVTVSS | low polyreactivity
12 | QVQLEESGGGLVQAGGSLRLSCAASGSIFIYYAMGWYRQAPGKERELVAGINFNGGSTYYADSVKVRFTISRDNAKNTVYLQMNSLKPEDTAVYYCAADELWWTYWDFVTNWYQRDYWGQGTQVTVSS | low polyreactivity
13 | QVQLEESGGGLVQAGGSLRLSCAASGSIFNVNTIGWYRQAPGKEREFVAAISYSGGSTYYADSVKGRFTISRDNAKNTVYLQMNSLKAEDTALYYCNVSPTTSGDGGGYDSWGQGTQVTVSS | low polyreactivity
14 | QVQLEESGGGLVQAGGSLRLSCAASGSIFRGYAMGWYRQAPGKERELVAAINWSGSSTYYADSVKGRFTISRDNAKNTVYLQMNSPKPEDTAVYYCARVYYNRNLGGDYWGQGTQVTVSS | low polyreactivity
15 | QVQLEESGGGLVQAGGSLRLSCAASGSIFRVYAMGWYRQAPGKERELVAAISQSADSTYYADSVKGRFTILRDNAKNTVYFQMNSLKPEDTAVYYCAAEYPYIYRFDYWGQGTQVTVSS | low polyreactivity
16 | QVQLEESGGGLVQAGGSLRLSCAASGSIFTVNAMGWYRQATGKQMELVAAISQSGGSTYYADSVKGRFTISRDNAKNTVYLQMNSLKPEDTAVYYCNALLFIVHGDKSQTMDYWGQGTQVTGSS | low polyreactivity
17 | QVQLEESGGGLVQAGGSLRLSCAASGSIFVPYAMGWYRQAPGKERELVASISWRGGSTYYADSVKGRFTISRDNAKNTVYLQMNSLKPEDTAVYYCAAQKRGSPGYRRDYWGQGTQVTVSS | high polyreactivity
18 | QVQLEESGGGLVQAGGSLRLSCAASGSIFWLYAMGWYRQAPGKEREFVAAITTSGSSTRYADSVKGRFTISRDNAKNTVYVQMNSLKPEDTAVYYCAARNRTFFQPTYYYWGQGTQVTVSS | high polyreactivity
19 | QVQLEESGGGLVQAGGSLRLSCAASGSIFYKYAMGWYRQAPGKEREFVATIRYSGGSTYYADSVKGRFTISRDNAKNTVYLQMNILKPEDTAVFYCAADAYSYGYDSWGQGTQVTVSS | high polyreactivity
20 | QVQLEESGGGLVQAGGSLRLSCAASGSTFAVYAMGWYRQAPGKERELVAAINRSGDSTYYADSVKGRFTISRDNAKNTVYLQMNSLKPEDTAVYYCAAYQRVRSGVDMYSWGQGTQVTVSS | high polyreactivity
21 | QVQLEESGGGLVQAGGSLRLSCAASGSTFDTYAMGWYRPAPGKERELVAGITRRGGRTYYADSVKGRFTISRDTAKNTVYLQKYSLKPEDTAVYYCNAVPQRPVGKRDHWGQGTQVTVSS | high polyreactivity
22 | QVQLEESGGGLVQAGGSLRLSCAASGSTFEYKAKGWYRQAPGKERELVASSTNYADSVKGRFTISRDNAKNTVYLQMNSLKPEDTAVYYCAREQGVNRNHDYWGQGTQVTVSS | low polyreactivity

Row | Sequence | polyreactivity (PSR sort gate)
23 | QVQLEESGGGLVQAGGSLRLSCAASGSTFFIYAMGWYRQAPGKEREMVAAISGSGGTTYYADSVKGRFTISRDNAKNTVYLQMNSLKPEDTAVYYCAARTFSAFWRGGYDYWGQGTQVTVSS | low polyreactivity
24 | QVQLEESGGGLVQAGGSLRLSCAASGSTFHGYAMGWYRQEPGKERELVAAITSGDSTNYADSVKGRFTISRDNAKNTVYLQMNSLKPEDTAVYYCNAEGSSVLTGYWGYPPYWDTYDYWGQGTQVTVSS | low polyreactivity
25 | QVQLEESGGGLVQAGGSLRLSCAASGSTFKYYAMGWYRQAHGKERELVAAISRRGGSTYYADSVKGRFTISRDNAKNTVYLQMNSLKPEDTAVYYCAADIIRPVTVDYWGQGTQVTVSS | high polyreactivity
26 | QVQLEESGGGLVQAGGSLRLSCAASGSTFQENAMGWYRQAPGKEREFVAAISGSGGSTYYADSVKGRFTISRDNAKNTVYLQMNSLKPEDTAVYYCAARHYFRSRRRYDYWGQGTQVTVSS | low polyreactivity
27 | QVQLEESGGGLVQAGGSLRLSCAASGSTFRYYAMGWYRQAPGKERELVAAISRSGGRTYYADSVKGRFTISRDNAKNTVYLQMNSLKPEDTAVYYCATRGDGSSWGDYDYWGQGTQVTVSS | high polyreactivity
28 | QVQLEESGGGLVQAGGSLRLSCAASGSTFSYNTMGWYRQAPGKERELVASITWSGGSTNYADSVKGRFTISRDNAKNTVYLQMNSLKPEDTAVYYCAKDYISVWNVRASDYYWYDYWGQGTQVTVSS | low polyreactivity
29 | QVQLEESGGGLVQAGGSLRLSCAASGSTFVYYAMGWYRQSPGKERELVAAISRGGGSTYYADSVKGRFTISRDNAKNTVYLQMNSLKPEDTAVYYCAAVAGYRYYWGQGTQVTVSS | high polyreactivity
30 | QVQLEESGGGLVQAGGSLRLSCAASGSTFVYYPMGWYRQATGKERELVAVISDDGGTYYADSVKGRFTISRDNAKNTVYLQMNSLKPEDTAVFYCAKDYYGGAFYWYNDRSGDYWGQGTQVTVSS | low polyreactivity
31 | QVQLEESGGGLVQAGGSLRLSCAASGSTYACYYMGWYIQAPGTEREFVAAIDYGGGSTYADSVQGRFTISRDNAKITVYLQMNSLKPEDTAVYYCYADNWVYLYVYWGQGTQVTVSS | low polyreactivity
32 | QVQLEESGGGLVQAGGSLRLSCAASGYIFYEYAMGWYRQAPGKERELVAAISRRGGRTYYADSVKGRFTISRDNAKNTVYLQMHSLKPEDTAVYYCAASVRFGDYEYWGQGTQVTVSS | high polyreactivity
33 | QVQLEESGGGLVQAGGSLRLSCAASGYTFFTNVMGWYRQAPGKERELVATITTGGSTYADSVKGRFTISRDNAKNTVYLQMNSLKPEDTAVYYCAVDALTGAWLGGYPYWADGYDYWGQGTQVTVSS | low polyreactivity
34 | QVQLEESGGGLVQAGGSLRLSCAASGYTFGLYAMGWYRQAPRKERELVAAISSDASTNYADSVKGRFTISRDNAKNTVYLQMNSLKPEDTAVYYCAAAVKRGYAQSFISDGYGYWGQGTQVTVSS | low polyreactivity
35 | QVQLEESGGGLVQAGGSLRLSCAASVSIFGVNVMGWYRQAPGKERELVAAISSGGSTNYADSVKGRFTISGDNEKKTVYLLMISLKPDDTAVYFCIAGLGRLYDYWGQGTQVTVSS | low polyreactivity
36 | QVQLEESGGGLVQAGGSLRLSCAATGSTFYDYAMGWYRQAPGKERELVASITFTGGSTYYADSVKGRFTISRDNAKNTVYLQMISLKPEDTAVYFCAAYGWRVHDRWFFERDYWGLGTQVTVSS | high polyreactivity
37 | QVQLEESGGGLVQAGGSLRLSCAATGYTFEANAMGWYRQAPGKERELVAVITWTGGSTYYADSVKGRFTISRDNAKYTVYLQMNSLKPEDTAVYYCAADGVVPGRFFWPAHEYDFWGQGTQVTVSS | low polyreactivity
38 | QVQLEESGGGLVQAGGSLRLSCAAYGRTFPNYAMGRYRQAPGKEREMVADISSSGVSTYYADSVKGRFTISRDNAKNTVYLKMNSLKPEDTAVYYCAARSWWFQRGEYWGQGTQVTVSS | high polyreactivity
39 | QVQLEESGGGLVQAGGSLRLSCAPSGSIFFYYAMGWYRQAPGKERELVAAITFTGGSTYYADSVKGRFTISRDNANNTVYLQMNSLNPEDTAVSYCAADWYYGDEYEYWGQGTQVTVSS | high polyreactivity
40 | QVQLEESGGGLVQAGGSLRLSCDASGSTLLYYAMGWYRPAPGKERELVAAISWRGGSTYYADSVKGRFTISRDNAKNTVYLQMNSLKPEDTAVYYCAARSLRLVGPYYYWGEGTQVTVSS | high polyreactivity
41 | QVQLEESGGGLVQAGGSLRLSFAASGRTFWWYAMGWYRQAPGKERELVAAITWSGGSTYYADSVKGRFTISRDNAKNTVYLQMNSLKPEDTAVYYCAAYVHNKYDYWGQGTQVTVSS | low polyreactivity
42 | QVQLEESGGGLVQAGGSLRLSSAASGIIFGTNAMGWYRQAPGKERELVAGITSSGDSTYYADSVKGRFTISRDNPKNTVYLQMNSLKPEDTAVYYCARDIRTREFDSWGQGTQVTVSS | low polyreactivity
43 | QVQLEESGGGLVQAGGSLRLSSAASGSIFGVNPMGWYRQTPGKERELVARINWSSGRTYYADSVKGRFTISRDNAKNTVYLQMNCLKPEDTAVYYCAAAYWRPGVRFFGPYDYWGQGTQVTVSS | high polyreactivity
